This note sets out measurements from patent US8840891 (RSR, dated 2014).

In test [1] the target is TSHR coated onto tubes (TSHR coated tubes) (human) (UniProt P16473). In words: TSHR coated tubes.
Test [2] shares this target. In words: TSHR coated tubes, in presence of HBD pool.
Test [3] shares this target. In words: TSHR coated tubes, in the presence of HBD pool (Tables 4a, 4b).
For test [4] the target is unchanged. In words: TSHR coated tubes, in the presence of HBD pool (Table 5).
In test [5] the target is TSHR coated on ELISA plate wells (RSR Ltd) (human) (UniProt P16473). The experiment in a line: ELISA on TSHR-coated wells, inhibition of TSH-biotin binding.
For test [6] the target is unchanged. In words: ELISA on TSHR-coated wells, inhibition of 5C9 IgG-biotin binding.
Test [7] shares this target. In words: ELISA on TSHR-coated wells, TSH-biotin binding with HBD pool (no competitor).

Substance 125I-labelled TSH (ligand) yielded an average % binding of labelled tracer in test [1] of 14%. Besides, the % binding of labelled tracer in test [2] worked out at 12%. Moreover, the % of labelled protein bound turned out to be 12% in test [3] and 15% in test [4].
In the case of “M22 IgG (human monoclonal thyroid stimulating autoantibody, hMAb TSHR1)”, the average % binding of labelled tracer in test [1] was found to be 21%. In test [2], the % binding of labelled tracer was determined as 17%. The % of labelled protein bound is 20% in test [3] and 24% in test [4].
Take “M22 IgG, human monoclonal thyroid stimulating autoantibody (hMAb TSHR1)”: the % inhibition stood at 15% in test [5] and 28% in test [6].
With TSH-biotin (ligand), the Abs 450 nm in test [7] is 2.14 Abs 450 nm.
